{"source": "the DeepSol protein solubility set", "data": [{"assay": "soluble on expression in E. coli; label from the status in PepcDB or PDB records", "values": [{"sequence": "MGQEKLLFDQKYKIIKGEKKEKKKNQRANRREHQQKREIMRFKKSFTCIDMHTEGEAARIVTSGLPHIPGSNMAEKKAYLQENMDYLRRGIMLEPRGHDDMFGAFLFDPIEEGADLGIVFMDTGGYLNMCGHNSIAAVTAAVETGIVSVPAKATNVPVVLDTPAGLVRGTAHLQSGTESEVSNASIINVPSFLYQQDVVVVLPKPYGEVRVDIAFGGNFFAIVPAEQLGIDISVQNLSRLQEAGELLRTEINRSVKVQHPQLPHINTVDCVEIYGPPTNPEANYKNVVIFGNRQADRSPCGTGTSAKMATLYAKGQLRIGETFVYESILGSLFQGRVLGEERIPGVKVPVTKDAEEGMLVVTAEITGKAFIMGFNTMLFDPTDPFKNGFTLKQYIWSSSVDKLAAALEHHHHHH", "soluble on expression in E. coli": "soluble"}, {"sequence": "MGQMFGVACIDEQSGIVGQAWNNNSVRYISIDEDAVITIQSGPVVGKVAVSNDKTLAYGATINGANTVYVYKKSQAWVPSRLSDISSGTDVWAVALNGDNQWLYYVTANGRLGRIEVDNPTHNEILFEHNDFSGGPFAYIAYSAFEDCFYVTTDKNKILKVWVKEDGTHAYEQINQNNTGTTDGFLADEAKFQYLRGLTIDEDGNIFVCQGDNSHVIRKIAYDENMEKRYVTTVLGTSTVHGTDDGSPDIALFNGPQDISYDGNGGYWIAMRYEPALRKYSIELEHHHHHH", "soluble on expression in E. coli": "not soluble"}, {"sequence": "MGQRGQVCQGRCMAEDQQSSQISDTVPALRRAVRILDLVAGSPRDLTAAELTRILDLPKSSAHGLLAVMTELDLLARSADGTLRIGPHSLRWANGFLSHLDIVSTFNDHLAQRHDLDPYTVTLTVREGGEVVYIGCRNSAQPLGHTFRIGMRLPAPFTATGKILLSDLGPGELRMLFSQFPQPLTSRSVAGLSQLEEELALTRARGYSIDDGQIREGMLCIGAAIRDYSGAASAGIAISLIRSEASDEKIASLGEELRTTANALSEKLGYRSQKD", "soluble on expression in E. coli": "not soluble"}, {"sequence": "MGQRVDKEVTPRFVELGQVSAIRTEPEIAYRSNQGVTRQRQQTKVFKLVSTYDKVAVKNAIRAAYRQVFERDLEPYIINSEFTALESKLSNNEINVKEFIEGLGTSELYMKEFYAPYPNTKVIEMGTKHFLGRAPLNQKEIQQYNQILASQGLKAFIGAMVNGMEYLQTFGEDTVPYRRFPTLPAANFPNTERLYNKLTKQDKELEHHHHHH", "soluble on expression in E. coli": "soluble"}, {"sequence": "MGQSWGYEGIAKRSLCTHKWLYNLNLHSINLFLPIESKMSAQASRQKKSDQEQRAADQALLNAAIEDNAMEQDENFTVIDKLESSGISSGDISKLKEAGYYTYESLAFTTRRELRNVKGISDQKAEKIMKEAMKFVQMGFTTGAEVHVKRSQLVQIRTGSASLDRLLGGGIETGSITEVYGEYRTGKTQLCHSLAVLCQLPIDMGGGEGKCMYIDTNATFRPERIIAIAQRYNMDSAHVLENIAVARAYNSEHLMALIIRAGAMMSESRYAVVIVDCATAHFRNEYTGRGDLAERQMKLSAFLKCLAKLADEYGVAVIITNQVVAQVDGGASMFQADAKKPIGGHIIAHMSTTRLYLRKGKGENRVAKMVQSPNLPEAEATYSITNHGIEDARED", "soluble on expression in E. coli": "soluble"}, {"sequence": "MGQVSAASTILINAEPTATLDALADYETVRPKILSPHYSEYQVLEGGKGRGTVAKWRLQATQSRVRDVQVNVDVAGHTVIEKDMNSSMVTNWTVAPAGPGSSVTVKTTWTGAGGVKGFFEKTFAPLGLKKIQAEVLSNLKTELEGDA", "soluble on expression in E. coli": "soluble"}, {"sequence": "MGRFPSWVLVADWPAPPGVMVLSTLRGGPGVSVAPFDRLNLGNCSGVAGDAPVCVERNRSRLVEMLGLPSVPHWLRQVHGVEVLRVDALLQSIARVVEPTADAAVTSVVGAVLAILTADCLPVVLAAVDGSEIGVVHAGWRGLADDVLGRTVAALRTSPEYLQAWLGPAAGPQAYEVGVDVYAAFVERDSGAACAFSVTRPGHWYVDLYALARQRLMRAGLSAVSIYGGGLCTISDPQRFFSHRRDRRSGRFATLAWIGC", "soluble on expression in E. coli": "soluble"}, {"sequence": "MGRIKQGLDYFPLSTDFMHDRIVRRVMKREGDSAFTVLIYIMSYLYSGEGYYVRADTDFCDELSDQLFSTDNDTVRRVIRLFLEYGLFDSALYERYSILTSEDVQRQYLFITKRRSRHHICPDYCLLPEEKTTDEQPDTVAATGENVAVSPNIATASRDTATKTALIKRKEKEKKENIFPNPPFAKGGDEEEGSEGEKVAEGAGGGMREECDQRSATRKRNLTQEDIDRMQVPPDGCPRNFSGLLENLRLFRVPPAEQYAIVLKSNYGEIGGDIWKGFSVIRGSGGKIKLPGHYLLSVLNK", "soluble on expression in E. coli": "not soluble"}]}]}
